The data set concerns the target YTHDC1 YTH domain (Homo sapiens, UniProt Q96MU7 345-509). Description: ITC. On the technique in general: In ITC the heat of successive injections is recorded.

The results in this text go back to PMC8887474.

What is called Kd is a measure of binding affinity in units of concentration. A higher Kd goes with a looser complex.

B1: CC(m6A)UCG hexamer (ssRNA)
RNA: CCAUCG
modifications: m6A at position 3
For B1, the Kd came out at 1270 ± 240 nM.

B2: (m6A)UCG Xist tetraloop hairpin (structured_RNA)
RNA: GGCGCAUCGGCGCC
modifications: m6A at position 6
In the case of B2, the Kd was 3030 ± 530 nM.

B3: UG-mismatch (m6A)UCG Xist hairpin (structured_RNA)
RNA: GGCGUAUCGGCGCC
modifications: m6A at position 6
Consider B3, for which the affinity, expressed as Kd, was 2050 ± 100 nM.
